Results as given in patent US20060148715A1, “Structural requirements for STAT3 binding and recruitment to phosphotyrosine ligands” (BAYLOR COLLEGE OF MEDICINE, priority 2004, published 2006).
Non-standard residues stand in square brackets, D forms with d. No end group written: not given here. *: point of attachment. d‑Biotin‑LC = N-terminal biotin (d-Biotin-LC), O=C(CCCC[C@@H]1SC[C@@H]2NC(=O)N[C@@H]21)NCCCCCC(=O)*; pY = N[C@@H](Cc1ccc(OP(=O)(O)O)cc1)C(=O)O

What was measured:
Stat3-3M [1] = biological target: T1, Stat3-3M (Homo sapiens, UniProt P40763, E638L/Y640F/Y657F); experiment: Mirror resonance affinity assay (resonant mirror biosensor); type: binding
T1 construct: made in house; host or cells: Sf9 insect cells (baculovirus, pFastBac1)
Method: (§1) Kinetics experiments were performed using an lasys Auto+ resonant mirror biosensor (Affinity Sensor, Paramus, N.J.) (see Sadowski et. al, 1986). Briefly, two-welled cuvettes coated on the bottom of each well with biotin were purchased from Affinity Sensor and prepared for immobilization of biotinylated peptides by coating each surface with 0.04 mg/ml NeutrAvidin (Pierce) and washing with PBS-T (20 mM Na Phosphate, 0.05% Tween-20). Biotinylated peptide (5 μg) was added into each well—experimental peptide to one well and control peptide to the other—and change in arc seconds monitored simultaneously in both wells using the biosensor until stable followed by washing with PBS-T. Real-time binding of Stat3 was conducted at 25° C. at a stir speed of 70 for 10 min starting at the lowest concentration of Stat3. The wells were washed out with three changes of 60 μl PBS-T, and dissociation was allowed to proceed for 5 min. Each well bottom was regenerated by washing with […] of 100 mM formic acid for 2 min and equilibrated with PBS-T for the next round of association assay. Data were collected automatically and analyzed with the FASTplot and GraFit software (see Sheinerman et. al, 2003).
(§2) Mirror resonance affinity assay. Two cells of a biotin-coated cuvette pretreated with saturating amounts of NeutrAvidin. One well of the cuvette was pretreated with biotinylated phosphopeptide based on Y1068 (pY1068, left panel), while the other well was pretreated with biotinylated non-phosphorylated peptide Y1068 (Y1068, right panel) as a control for non-specific binding. Wild type or mutated Stat3 protein was added in the concentrations indicated to each of the two cells and mirror resonance measurements recorded continuously for 10 min as shown.

Stat3-4M [2] = biological target: T2, Stat3-4M (Homo sapiens, UniProt P40763, C687A/Q692L/S691A/Y657F); experiment: as above; type: binding
T2 construct: made in house; host or cells: Sf9 insect cells (baculovirus, pFastBac1)
Method: as §1, §2

Stat3-6M [3] = biological target: T3, Stat3-6M (Homo sapiens, UniProt P40763, C687A/E638L/Q692L/S691A/Y640F/Y657F); experiment: as above; type: binding
T3 construct: made in house; host or cells: Sf9 insect cells (baculovirus, pFastBac1)
Method: as §1, §2

wild type Stat3 [4] = biological target: T4, wild type Stat3 (Homo sapiens, UniProt P40763); experiment: as above; type: binding
T4 construct: made in house; host or cells: Sf9 insect cells (baculovirus, pFastBac1)
Method: as §1, §2
To obtain quantitative kinetic information about the binding of Stat3 to G-CSFR Y704 and Y744 including association rates (kass), disassociation rates (kdiss) and dissociation equilibrium constants (KD), real-time affinity measurements using a mirror resonance biosensor were performed. The biosensor exploits surface plasmon resonance to measure in real time the alteration in the angle of a laser light reflected from a surface upon which binding events are occurring. Biotinylated peptides were immobilized onto the bottom surface of cuvette wells pre-coated with NeutrAvidin. The interaction of peptides with Stat3 added at different concentrations was measured in real time as altered deflection of a laser light striking the bottom surface of the cuvette; the alterations in the deflection angle measured in arc seconds was analyzed with GraFit software. […] The slightly lower KD for Y704 vs. Y744 is attributable to a faster association rate of Stat3 binding to this phosphododecapeptide.

wild type Stat3 [5] = biological target: T4, wild type Stat3; experiment: Phosphopeptide affinity immunoblot (peptide pull-down); type: binding; conditions: purified wild type Stat3
Method: (§3) NeutrAvidin agarose (40 μl; Pierce) was incubated with 10 μg of biotinylated peptide in 300 μl of Buffer A (20 mM HEPES pH 7.5, 20 mM NaF, 1 mM Na3VO4, 1 mM Na4P2O7, 1 mM EDTA, 1 mM EGTA, 20% glycerol, 0.05% NP-40, 1 mM DTT, 1 μg/ml leupeptin, 1 μg/ml aprotinin, 0.5 mM phenylmethylsulfonyl fluoride, 100 mM NaCl) at 4° C. for 2 h and washed with Buffer A 3 times. The NeutrAvidin-peptide complex was then mixed with His-tagged Stat3 protein (5 μg) in 1 ml of Buffer A (without NaCl and NP-40) at 4° C. for 2 h and washed thoroughly. Bound proteins were separated and immunoblotted using Stat3 monoclonal antibody (mAb).
Each peptide was incubated with equal amounts of purified wild type Stat3 protein in peptide pull-down assays (FIG. 1). NeutrAvidin agarose was incubated with the indicated biotinylated peptides (see Table 2 for sequence) or no peptide (CON) as control, washed thoroughly and mixed with identical amount of wild type Stat3. Bound proteins were separated by SDS-PAGE and immunoblotted using Stat3 mAb. Lane ST represents purified wild type Stat3 (0.6 μg) loaded directly onto the gel as positive control. […] Thus, Q at the +3 position of Y1068 phosphopeptide is required for Stat3 binding and appears to be as important for Stat3 binding as phosphorylation on tyrosine. […]

Stat3-3M+K591L = biological target: T5, Stat3-3M+K591L (Homo sapiens, UniProt P40763, E638L/K591L/Y640F/Y657F); experiment: as above; type: binding
T5 construct: made in house; host or cells: Sf9 insect cells (baculovirus, pFastBac1)
Method: as §3
(§4) To test the pocket 1 component of the two models and to ensure that the peptide pull-down system was sufficiently sensitive to detect reduced binding of Stat3 containing mutations in pocket 2, either K591L or R609L was added to the 3M mutant to generate Stat3-3M+K591L and Stat3-3M+R609L.
(§5) To test the pocket 1 component of the two models and to ensure that our peptide pull-down system was sufficiently sensitive to detect reduced binding of Stat3 containing mutations in pocket 2, either K591L or R609L was added to the 3M mutant to generate Stat3-3M+K591L and Stat3-3M+R609L.

Stat3-3M+R609L = biological target: T6, Stat3-3M+R609L (Homo sapiens, UniProt P40763, E638L/R609L/Y640F/Y657F); experiment: as above; type: binding
T6 construct: made in house; host or cells: Sf9 insect cells (baculovirus, pFastBac1)
Method: as §3, §4, §5

Stat3-E638P [6] = biological target: T7, Stat3-E638P (Homo sapiens, UniProt P40763, E638P); experiment: as above; type: binding
T7 construct: made in house; host or cells: Sf9 insect cells (baculovirus)
Method: as §3
In FIG. 5C, NeutrAvidin agarose was incubated with the indicated biotinylated dodecapeptides (see Table 2 for sequence) or no peptide (CON) as control, washed thoroughly and mixed with wild type Stat3 protein. Bound proteins were separated by SDS-PAGE and immunoblotted using Stat3 mAb. Lane ST represents purified wild type Stat3 (0.6 μg) loaded directly onto the gel as a positive control.
To test the contribution of the E638 amide hydrogen to binding to G-CSFR Y704 and Y744 phosphododecapeptide, Stat3-E638P was generated by site-directed mutagenesis, which eliminated the amide hydrogen donor predicted to bind with oxygen within the +3 Q side chain.

Stat3-4M [7] = biological target: T2, Stat3-4M; experiment: as above; type: binding; conditions: compared with wild type Stat3
Method: as §3
NeutrAvidin agarose was incubated with the indicated biotinylated peptides (see Table 2 for exemplary sequences) or no peptide (CON) as control, washed thoroughly and mixed with identical amounts of wild type or mutant Stat3 proteins as indicated. Bound proteins were separated by SDS-PAGE and immunoblotted using Stat3 mAb. Lane ST represents purified wild type Stat3 (0.6 μg) loaded directly onto the gel as positive control.
Stat3 proteins in which mutations were introduced to alter side chains from charged or polar to non-polar within amino acid residues were predicted in each model to be critical for Stat3 binding (FIG. 1B). The recombinant Stat3 proteins were expressed in Sf9 insect cells and purified to equivalent levels using Ni-NTA resin (FIG. 1C).

Stat3-3M [8] = biological target: Stat3-3M (human, UniProt P40763 1-770, limits assumed); experiment: peptide pull-down: biotinylated peptide on NeutrAvidin agarose, purified His-tagged Stat3 protein added, bound protein immunoblotted with Stat3 mAb
[9] = biological target: T8, wild type Stat3 (recombinant human Stat3alpha with N-terminal 6-histidine tag) (human, UniProt P40763 1-770); experiment: as above
T8 construct: Expressed in Sf9 cells and purified on Ni-NTA for peptide assays; expressed from pcDNA3.1 in 293T cells for the G-CSFR co-immunoprecipitation; also called WT; purified Stat3

Stat3-4M [10] = biological target: Stat3-4M (human, UniProt P40763 1-770, limits assumed); experiment: as above
Stat3-6M [11] = biological target: Stat3-6M (human, UniProt P40763 1-770, limits assumed); experiment: as above
Stat3-E638P [12] = biological target: T9, Stat3-E638P (human, UniProt P40763 1-770); experiment: as above
T9 construct: Produced in Sf9 cells; CD spectrum essentially identical to wild type
T9 sequence (P40763 other isoform, or with tags, fused parts or gaps E638P E638P limits assumed): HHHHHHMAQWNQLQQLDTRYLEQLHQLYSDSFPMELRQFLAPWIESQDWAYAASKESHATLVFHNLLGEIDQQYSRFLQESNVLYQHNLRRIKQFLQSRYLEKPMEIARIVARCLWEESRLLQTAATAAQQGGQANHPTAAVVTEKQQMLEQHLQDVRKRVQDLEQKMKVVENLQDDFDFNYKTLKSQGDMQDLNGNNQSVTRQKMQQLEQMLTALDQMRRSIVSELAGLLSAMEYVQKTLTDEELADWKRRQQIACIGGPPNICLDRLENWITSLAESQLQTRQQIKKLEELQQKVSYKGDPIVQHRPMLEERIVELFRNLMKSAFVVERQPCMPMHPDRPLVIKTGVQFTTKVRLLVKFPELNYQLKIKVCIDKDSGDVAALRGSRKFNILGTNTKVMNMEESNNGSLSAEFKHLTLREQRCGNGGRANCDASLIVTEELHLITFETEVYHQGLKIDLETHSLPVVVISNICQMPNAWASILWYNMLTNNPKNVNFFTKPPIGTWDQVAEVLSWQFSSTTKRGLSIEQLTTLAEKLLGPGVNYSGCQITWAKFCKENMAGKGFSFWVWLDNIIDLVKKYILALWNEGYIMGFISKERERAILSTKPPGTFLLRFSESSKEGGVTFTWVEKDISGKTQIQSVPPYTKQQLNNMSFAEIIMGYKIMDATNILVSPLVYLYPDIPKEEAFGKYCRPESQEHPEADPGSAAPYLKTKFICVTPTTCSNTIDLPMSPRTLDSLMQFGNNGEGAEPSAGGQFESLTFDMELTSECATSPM

T4 sequence (P40763 whole entry): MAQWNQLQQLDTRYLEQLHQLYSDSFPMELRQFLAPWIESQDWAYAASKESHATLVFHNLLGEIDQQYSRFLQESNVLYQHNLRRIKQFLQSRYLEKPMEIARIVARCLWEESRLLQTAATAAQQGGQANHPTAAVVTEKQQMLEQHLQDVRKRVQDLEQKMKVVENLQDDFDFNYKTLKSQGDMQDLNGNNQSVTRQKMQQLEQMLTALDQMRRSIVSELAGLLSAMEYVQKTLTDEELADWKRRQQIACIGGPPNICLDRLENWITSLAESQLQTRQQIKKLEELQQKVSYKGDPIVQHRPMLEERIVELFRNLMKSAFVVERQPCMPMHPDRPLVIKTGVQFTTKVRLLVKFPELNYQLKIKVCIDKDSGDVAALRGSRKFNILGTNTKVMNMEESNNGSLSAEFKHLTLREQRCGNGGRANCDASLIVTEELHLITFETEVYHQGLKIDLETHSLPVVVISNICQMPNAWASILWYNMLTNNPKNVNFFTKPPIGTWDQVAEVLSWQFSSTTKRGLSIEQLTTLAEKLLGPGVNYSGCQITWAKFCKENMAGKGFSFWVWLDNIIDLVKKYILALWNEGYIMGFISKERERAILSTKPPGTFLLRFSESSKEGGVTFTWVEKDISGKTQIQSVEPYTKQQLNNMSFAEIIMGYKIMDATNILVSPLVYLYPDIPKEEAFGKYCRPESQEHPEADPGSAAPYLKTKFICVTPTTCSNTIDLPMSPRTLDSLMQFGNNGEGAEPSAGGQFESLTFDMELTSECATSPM
T2 sequence (P40763 whole entry Y657F/C687A/S691A/Q692L): as the sequence (P40763 whole entry) above, with Y657F, C687A, S691A, Q692L counted along it
T5 sequence (P40763 whole entry K591L/E638L/Y640F/Y657F): as the sequence (P40763 whole entry) above, with K591L, E638L, Y640F, Y657F counted along it
Stat3-4M (human, UniProt P40763 1-770, limits assumed), sequence (P40763 other isoform, or with tags, fused parts or gaps limits assumed): as the sequence (P40763 other isoform, or with tags, fused parts or gaps E638P E638P limits assumed) above, with P644E, Y663F, C693A, S697A, Q698L counted along it
T8 sequence (P40763 other isoform, or with tags, fused parts or gaps limits assumed): as the sequence (P40763 other isoform, or with tags, fused parts or gaps E638P E638P limits assumed) above, with P644E counted along it
Stat3-3M (human, UniProt P40763 1-770, limits assumed), sequence (P40763 other isoform, or with tags, fused parts or gaps limits assumed): as the sequence (P40763 other isoform, or with tags, fused parts or gaps E638P E638P limits assumed) above, with P644L, Y646F, Y663F counted along it
T6 sequence (P40763 whole entry R609L/E638L/Y640F/Y657F): as the sequence (P40763 whole entry) above, with R609L, E638L, Y640F, Y657F counted along it
T1 sequence (P40763 whole entry E638L/Y640F/Y657F): as the sequence (P40763 whole entry) above, with E638L, Y640F, Y657F counted along it
T3 sequence (P40763 whole entry E638L/Y640F/Y657F/C687A/S691A/Q692L): as the sequence (P40763 whole entry) above, with E638L, Y640F, Y657F, C687A, S691A, Q692L counted along it
Stat3-6M (human, UniProt P40763 1-770, limits assumed), sequence (P40763 other isoform, or with tags, fused parts or gaps limits assumed): as the sequence (P40763 other isoform, or with tags, fused parts or gaps E638P E638P limits assumed) above, with P644L, Y646F, Y663F, C693A, S697A, Q698L counted along it
T7 sequence (P40763 whole entry E638P): as the sequence (P40763 whole entry) above, with E638P counted along it

CC[C@H](C)[C@H](NC(=O)[C@H](Cc1ccc(OP(=O)(O)O)cc1)NC(=O)[C@H](CCC(=O)O)NC(=O)[C@@H]1CCCN1C(=O)[C@@H](NC(=O)[C@@H]1CCCN1C(=O)[C@H](CC(C)C)NC(=O)CCCCCNC(=O)CCCC[C@@H]1SC[C@@H]2NC(=O)N[C@@H]21)C(C)C)C(=O)N[C@@H](CC(N)=O)C(=O)N[C@@H](CCC(N)=O)C(=O)N[C@@H](CO)C(=O)N[C@H](C(=O)N1CCC[C@H]1C(=O)O)C(C)C [Y1068 PDP, LPVPE(pY)INQSVP]
Kd (Stat3-3M [1]): 177 nM | Kd (Stat3-4M [2]): 271 ± 48 nM | Kd (Stat3-6M [3]): 249 ± 22 nM | Kd (wild type Stat3 [4]): 223 nM

LPVPEYINQSVP [unphosphorylated Y1068 dodecapeptide]
Stat3 detected in peptide pull-down (Stat3 immunoblot) (wild type Stat3 [5]): little to no Stat3 was detected

VQNPV(pY)HNQPLN (VQNPV[pY]HNQPLN) [Y1086 PDP]
binding of Stat3-3M+K591L in peptide pull-down (Stat3-3M+K591L): elimination of binding | binding of Stat3-3M+R609L in peptide pull-down (Stat3-3M+R609L): elimination of binding | binding of Stat3-E638P in peptide affinity immunoblot (Stat3-E638P [6]): no binding | level of Stat3-4M bound in peptide affinity immunoblot (Stat3-4M [7]): equal to or greater than wild type Stat3

{d‑Biotin‑LC}-PGPGHYLRCDST [Y744 non-phosphorylated dodecapeptide (G-CSFR)]
binding result (Stat3-3M [8]): no binding | binding result [9]: no binding | binding result (Stat3-4M [10]): no binding | binding result (Stat3-6M [11]): no binding | binding result (Stat3-E638P [12]): no binding
